# Patent US6916624 (Genentech, dated 2005)
# Where two headings read alike, the source gives them in different places.
# What was measured:
# [1] = target: ErbB receptor(s) on MCF7 cells; assay: cell-based or functional assay
# [2] = target: ErbB2 on human breast cancer cells (MDA-MB-175, SK-BR-3) (human) (UniProt P04626); assay: cell-based or functional assay
# [3] = target: T1, ErbB4-immunoadhesin (ErbB4-IgG fusion, G640 ErbB4-(TR)-DKTH224 VH) (human, UniProt Q15303 26-651; P01857 104-330 = IgG part); assay: competitive displacement of ^125I-HRGβ1(177-244) (0.23 nM) from ErbB4-IgG captured on goat-anti-human antibody coated wells
# T1 construct: extracellular domain;domain: hinge domain of the immunoglobulin onward; also called H4-IgG; ErbB4 immunoadhesins
# T1 sequence (Q15303 other isoform, or with tags, fused parts or gaps limits assumed): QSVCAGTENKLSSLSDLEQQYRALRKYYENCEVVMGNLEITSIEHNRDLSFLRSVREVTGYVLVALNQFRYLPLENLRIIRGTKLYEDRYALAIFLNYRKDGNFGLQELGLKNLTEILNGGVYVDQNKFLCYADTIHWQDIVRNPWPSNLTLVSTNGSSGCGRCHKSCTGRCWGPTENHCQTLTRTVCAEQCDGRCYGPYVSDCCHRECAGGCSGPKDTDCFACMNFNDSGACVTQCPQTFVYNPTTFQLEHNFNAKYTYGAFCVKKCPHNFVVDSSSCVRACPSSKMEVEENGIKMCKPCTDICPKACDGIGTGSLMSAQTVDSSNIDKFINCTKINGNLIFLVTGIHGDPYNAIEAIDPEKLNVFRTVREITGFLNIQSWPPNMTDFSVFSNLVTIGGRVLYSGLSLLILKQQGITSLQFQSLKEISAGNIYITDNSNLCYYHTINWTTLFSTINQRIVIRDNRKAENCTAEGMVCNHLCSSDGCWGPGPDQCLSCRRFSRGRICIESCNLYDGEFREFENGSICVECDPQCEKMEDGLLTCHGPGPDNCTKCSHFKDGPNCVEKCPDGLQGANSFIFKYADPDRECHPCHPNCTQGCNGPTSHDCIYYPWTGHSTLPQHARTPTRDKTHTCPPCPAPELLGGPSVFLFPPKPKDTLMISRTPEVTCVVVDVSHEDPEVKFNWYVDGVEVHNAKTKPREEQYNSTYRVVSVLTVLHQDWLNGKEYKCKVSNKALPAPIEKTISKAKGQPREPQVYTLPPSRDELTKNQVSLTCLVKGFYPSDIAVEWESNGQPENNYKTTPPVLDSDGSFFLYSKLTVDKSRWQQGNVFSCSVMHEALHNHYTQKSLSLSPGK
# Experimental: (§1) ¹²⁵I-HRG Binding Assay. Binding assays were performed in Nunc breakapart strip wells. Plates were coated at 4° C. overnight with 100 μl of 5 μg/ml goat-anti-human antibody (Boehringer Mannheim) in 50 mM carbonate buffer (pH 9.6). Plates were rinsed twice with wash buffer (PBS/0.05% Tween-20™) and blocked with 100 μl 1% BSA/PBS for 30 min. Buffer was removed and each well was incubated with 15 ng IgG fusion protein in 1% BSA/PBS under vigorous shaking for 1.5 hours. Plates were rinsed three times with wash buffer and competitive binding was carried out by adding various amounts of γ-HRG and ¹²⁵I-HRGβ1 under vigorous shaking. After incubation for 1.5–2 hours, wells were rinsed three times with wash buffer, drained and individual wells were counted using a 100 Series Iso Data γ-counter.
# (§2) Bio/Technology 11:187–193 (1993)). Under those conditions trxγ-HRG accumulated in inclusion bodies from which the recombinant protein was isolated. Following purification, the protein was sulfitolyzed and then refolded by the addition of cysteine. The interaction of γ-HRG with the heregulin receptors ErbB3 and ErbB4 was examined. […] Cells were treated with various amounts of γ-HRG and tyrosine kinase activity was determined using immunoblotting with anti-phosphotyrosine antibody.
# [4] = target: T2, ErbB3-immunoadhesin (ErbB3-IgG fusion, L636 ErbB3-(TR)-DKTH224 VH) (human, UniProt P21860 20-643; P01857 104-330 = IgG part); assay: competitive displacement of ^125I-HRGβ1(177-244) (0.23 nM) from ErbB3-IgG captured on goat-anti-human antibody coated wells
# T2 construct: extracellular domain;domain: hinge domain of the immunoglobulin onward; Made in HEK-293 cells, purified on Protein A; also called ErbB3 immunoadhesins
# T2 sequence (P21860 other isoform, or with tags, fused parts or gaps limits assumed): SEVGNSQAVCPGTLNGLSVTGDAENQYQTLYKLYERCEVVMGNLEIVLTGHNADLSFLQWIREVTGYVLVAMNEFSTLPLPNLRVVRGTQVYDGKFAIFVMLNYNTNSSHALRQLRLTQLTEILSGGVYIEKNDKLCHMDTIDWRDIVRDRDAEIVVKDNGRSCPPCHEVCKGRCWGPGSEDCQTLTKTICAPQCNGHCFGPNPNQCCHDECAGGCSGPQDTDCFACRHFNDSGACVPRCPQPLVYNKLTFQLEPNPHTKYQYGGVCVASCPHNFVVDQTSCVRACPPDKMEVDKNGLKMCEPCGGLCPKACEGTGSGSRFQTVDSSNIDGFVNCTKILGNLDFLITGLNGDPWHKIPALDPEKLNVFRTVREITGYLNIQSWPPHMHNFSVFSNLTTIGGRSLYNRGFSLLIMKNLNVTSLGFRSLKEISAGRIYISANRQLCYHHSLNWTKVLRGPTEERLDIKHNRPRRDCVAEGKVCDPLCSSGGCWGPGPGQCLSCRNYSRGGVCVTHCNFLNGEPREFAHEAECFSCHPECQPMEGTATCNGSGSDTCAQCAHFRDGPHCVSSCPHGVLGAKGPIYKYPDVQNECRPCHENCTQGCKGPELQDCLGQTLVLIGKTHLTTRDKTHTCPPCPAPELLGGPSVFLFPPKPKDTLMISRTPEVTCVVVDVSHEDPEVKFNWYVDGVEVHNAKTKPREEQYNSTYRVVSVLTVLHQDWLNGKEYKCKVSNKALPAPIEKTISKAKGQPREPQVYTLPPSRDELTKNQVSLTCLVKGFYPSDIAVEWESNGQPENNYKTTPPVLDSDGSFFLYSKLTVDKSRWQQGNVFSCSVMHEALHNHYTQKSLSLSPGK
# Experimental: as §1, §2
# [5] = target: ErbB receptor(s) on MCF7 cells; assay: cell-based or functional assay; remark: listed apart in the source
molecule,measurement,setting,value
"EGF-like domain of HRGβ1(177-244), expressed in E. coli (from UniProt Q02297 177-244) (ligand)",EC50 of tyrosine phosphorylation in MCF7 cells,[1],60 pM
anti-ErbB2 monoclonal antibody 4D5,growth inhibition of SK-BR-3 cells (crystal violet staining),[2],66%
"trxγ-HRG (amino acids 455-768), N-terminal truncated γ-HRG thioredoxin fusion protein (ligand, The results text calls it simply γ-HRG; also called recombinant γ-HRG; bacterial expressed truncated γ-HRG; not shown: N-terminal thioredoxin encoded by the pET-32a TRX fusion vector (Novagen); vector-encoded residues of pET32a between thioredoxin and the BamHI insertion site are not described) QVFIDHPVHLKFNVSLGKAALVGIYGRKGLPPSHTQFDFVELLDGRRLLTQEARSLEGTPRQSRGTVPPSSHETGFIQYLDSGIWHLAFYNDGKESEVVSFLTTAIALPPRLKEMKSQESAAGSKLVLRCETSSEYSSLRFKWFKNGNELNRKNKPQNIKIQKKPGKSELRINKASLADSGEYMCKVISKLGNDSASANITIVESNEIITGMPASTEGAYVSSESPIRISVSTEGANTSSSTSTSTTGTSHLVKCAEKEKTFCVNGGECFMVKDLSNPSRYLCKCPNEFTGDRCQNYVMASFYSTSTPFLSLPE",EC50,[3],13.3 nM
same,EC50,[4],19 nM
same,EC50 of tyrosine phosphorylation in MCF7 cells,[5],60 pM
